From patent US10590397B2 (priority 2017, dated 2020)
Values joined by “and” are separate entries in the source; they are usually repeats but may differ in a detail not shown here. Equal values may be shown once. Read-outs that look alike come from different tables or passages of the source.

Key:
[1] = DON as substrate; Michlmayr, et al., 2015; cited from earlier work
[2] = assay type: biochemical, Fusarium
[3] = assay type: biochemical, Fusarium; remark: listed apart in the source

| Molecule | KM value compared to WT Os79 [2] | Km [3] | also measured |
| --- | --- | --- | --- |
| Os79 (protein, listed as Oryza sativa) MGSMSTPAASANGGQVLLLPFPAAQGHTNPMLQFGRRLAYHGLRPTLVTTRYVLSTTPPPGDPFRVAAISDGFDDASGMAALPDPGEYLRTLEAHGARTLAELLLSEARAGRPARVLVYDPHLPWARRVARAAGVATAAFLSQPCAVDLIYGEVCARRLALPVTPTDARGLYARGVLGVELGPDDVPPFVAAPELTPAFCEQSIEQFAGLEDDDDVLVNSFSDLEPKEAAYMESTWRAKTIGPSLPSFYLDDGRLRSNTAYGFNLFRSTVPCMEWLDKQPPRSVVLVSYGTVSTFDVAKLEELGNGLCNSGKPFLWVVRSNEEHKLSVQLRKKCEKRGLIVPFCPQLEVLAHKATGCFLSHCGWNSTLEAIVNGVPLVAMPHWADQPTISKYVESLWGMGVRVQLDKSGILQREEVERCIREVMDGDRKEDYRRNATRLMKKAKESMQEGGSSDKNIAEFAAKYSN |  |  | Km [1]: 230 µM; kcat [1]: 0.57 s⁻¹ |
| Os79 Q202A (protein, listed as Oryza sativa) MGSMSTPAASANGGQVLLLPFPAAQGHTNPMLQFGRRLAYHGLRPTLVTTRYVLSTTPPPGDPFRVAAISDGFDDASGMAALPDPGEYLRTLEAHGARTLAELLLSEARAGRPARVLVYDPHLPWARRVARAAGVATAAFLSQPCAVDLIYGEVCARRLALPVTPTDARGLYARGVLGVELGPDDVPPFVAAPELTPAFCEASIEQFAGLEDDDDVLVNSFSDLEPKEAAYMESTWRAKTIGPSLPSFYLDDGRLRSNTAYGFNLFRSTVPCMEWLDKQPPRSVVLVSYGTVSTFDVAKLEELGNGLCNSGKPFLWVVRSNEEHKLSVQLRKKCEKRGLIVPFCPQLEVLAHKATGCFLSHCGWNSTLEAIVNGVPLVAMPHWADQPTISKYVESLWGMGVRVQLDKSGILQREEVERCIREVMDGDRKEDYRRNATRLMKKAKESMQEGGSSDKNIAEFAAKYSN | no significant difference |  |  |
| Os79 A384S (protein, listed as Oryza sativa) MGSMSTPAASANGGQVLLLPFPAAQGHTNPMLQFGRRLAYHGLRPTLVTTRYVLSTTPPPGDPFRVAAISDGFDDASGMAALPDPGEYLRTLEAHGARTLAELLLSEARAGRPARVLVYDPHLPWARRVARAAGVATAAFLSQPCAVDLIYGEVCARRLALPVTPTDARGLYARGVLGVELGPDDVPPFVAAPELTPAFCEQSIEQFAGLEDDDDVLVNSFSDLEPKEAAYMESTWRAKTIGPSLPSFYLDDGRLRSNTAYGFNLFRSTVPCMEWLDKQPPRSVVLVSYGTVSTFDVAKLEELGNGLCNSGKPFLWVVRSNEEHKLSVQLRKKCEKRGLIVPFCPQLEVLAHKATGCFLSHCGWNSTLEAIVNGVPLVAMPHWSDQPTISKYVESLWGMGVRVQLDKSGILQREEVERCIREVMDGDRKEDYRRNATRLMKKAKESMQEGGSSDKNIAEFAAKYSN | similar |  |  |
| Os79 H122A/L123G (protein, listed as Oryza sativa) MGSMSTPAASANGGQVLLLPFPAAQGHTNPMLQFGRRLAYHGLRPTLVTTRYVLSTTPPPGDPFRVAAISDGFDDASGMAALPDPGEYLRTLEAHGARTLAELLLSEARAGRPARVLVYDPAGPWARRVARAAGVATAAFLSQPCAVDLIYGEVCARRLALPVTPTDARGLYARGVLGVELGPDDVPPFVAAPELTPAFCEQSIEQFAGLEDDDDVLVNSFSDLEPKEAAYMESTWRAKTIGPSLPSFYLDDGRLRSNTAYGFNLFRSTVPCMEWLDKQPPRSVVLVSYGTVSTFDVAKLEELGNGLCNSGKPFLWVVRSNEEHKLSVQLRKKCEKRGLIVPFCPQLEVLAHKATGCFLSHCGWNSTLEAIVNGVPLVAMPHWADQPTISKYVESLWGMGVRVQLDKSGILQREEVERCIREVMDGDRKEDYRRNATRLMKKAKESMQEGGSSDKNIAEFAAKYSN |  | 512 µM | Km ([2]; 23° C.): 2500 µM and 2510 µM |
| Os79 H122A/L123A (protein, listed as Oryza sativa) MGSMSTPAASANGGQVLLLPFPAAQGHTNPMLQFGRRLAYHGLRPTLVTTRYVLSTTPPPGDPFRVAAISDGFDDASGMAALPDPGEYLRTLEAHGARTLAELLLSEARAGRPARVLVYDPAAPWARRVARAAGVATAAFLSQPCAVDLIYGEVCARRLALPVTPTDARGLYARGVLGVELGPDDVPPFVAAPELTPAFCEQSIEQFAGLEDDDDVLVNSFSDLEPKEAAYMESTWRAKTIGPSLPSFYLDDGRLRSNTAYGFNLFRSTVPCMEWLDKQPPRSVVLVSYGTVSTFDVAKLEELGNGLCNSGKPFLWVVRSNEEHKLSVQLRKKCEKRGLIVPFCPQLEVLAHKATGCFLSHCGWNSTLEAIVNGVPLVAMPHWADQPTISKYVESLWGMGVRVQLDKSGILQREEVERCIREVMDGDRKEDYRRNATRLMKKAKESMQEGGSSDKNIAEFAAKYSN |  | 926 µM | kcat ([3]; 23° C.): 1.6 s⁻¹ |
